From patent publication CN113621063A (JIANGSU QUANXIN BIOMEDICAL CO LTD; JIANGSU SAIFUSHI …, dated 2021) come the findings set out here.

In test [1] the target is T1, 人干扰素α受体1(IFNAR1) (human, UniProt P17181 28-436).
T1 construct: Soluble antigen flowed over the captured antibody in the Biacore assay; also called 人IFNAR1; Human Interferon alpha/beta Receptor 1
T1 sequence: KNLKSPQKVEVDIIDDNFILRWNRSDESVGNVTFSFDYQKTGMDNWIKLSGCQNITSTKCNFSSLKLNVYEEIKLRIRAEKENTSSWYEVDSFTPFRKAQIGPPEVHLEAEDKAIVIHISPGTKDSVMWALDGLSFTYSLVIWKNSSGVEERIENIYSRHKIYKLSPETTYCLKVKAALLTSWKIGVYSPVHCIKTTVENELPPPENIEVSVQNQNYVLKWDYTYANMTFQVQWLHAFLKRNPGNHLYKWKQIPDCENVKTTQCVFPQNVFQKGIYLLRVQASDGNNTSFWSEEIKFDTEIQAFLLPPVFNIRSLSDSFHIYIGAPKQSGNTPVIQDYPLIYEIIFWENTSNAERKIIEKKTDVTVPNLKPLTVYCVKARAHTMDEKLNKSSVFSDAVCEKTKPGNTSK
As to the kind of experiment: SPR, Biacore T200, antibody captured on Protein A chip, antigen in flow, 25℃, 1:1 model, mean of three runs. On the technique in general: SPR reads the build-up and loss of mass on a sensor chip optically.

Test [2] addresses T2, 人IFNAR1 (on HEK Blue IFNα/β cells, Daudi cells, human whole blood cells) (human, UniProt P17181 28-557).
T2 sequence (looked up): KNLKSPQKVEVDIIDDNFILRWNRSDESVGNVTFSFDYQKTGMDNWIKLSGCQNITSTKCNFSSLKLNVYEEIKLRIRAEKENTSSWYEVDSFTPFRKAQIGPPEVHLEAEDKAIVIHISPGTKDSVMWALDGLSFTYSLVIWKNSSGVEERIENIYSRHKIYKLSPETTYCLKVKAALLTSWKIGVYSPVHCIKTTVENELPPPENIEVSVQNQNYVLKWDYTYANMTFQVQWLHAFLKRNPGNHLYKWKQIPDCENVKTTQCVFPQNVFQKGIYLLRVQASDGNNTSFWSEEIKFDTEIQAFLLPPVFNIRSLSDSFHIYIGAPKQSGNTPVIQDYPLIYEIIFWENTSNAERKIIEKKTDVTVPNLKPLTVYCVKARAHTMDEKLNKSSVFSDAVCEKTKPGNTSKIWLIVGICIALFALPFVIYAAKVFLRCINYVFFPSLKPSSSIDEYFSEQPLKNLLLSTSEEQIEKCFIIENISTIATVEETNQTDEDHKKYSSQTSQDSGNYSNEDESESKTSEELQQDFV
As to the kind of experiment: cell-based or functional assay.

B1: QX006N(HZD1203-45-IgG4.1) (antibody, V domains shown)
VH: EVQLVESGGGLVQPGGSLRLSCAASGFSLSSYYMTWVRQAPGKGLEWVSVINVYGGTYYASWAKGRFTISRDNSKNTLYLQMNSLRAEDTAVYYCAREDVAVYMAIDLWGQGTLVTVSS
VL: AIQMTQSPSSLSASVGDRVTITCQASQSISNQLSWYQQKPGKAPKLLIYDASSLASGVPSRFSGSRSGTKFTLTISSLQPEDFATYYCLGIYGDGADDGIAFGGGTKVEIK
notes: Humanized rabbit clone 1203#; The human IgG1 constant region was replaced by human IgG4 (plasmid pHZDCH-362VH-Hu6-IgG4.1) and the light chain plasmid is pHZDCK (kappa); also called 抗人干扰素α受体1单克隆抗体QX006N; 重组人源化抗IFNAR1单克隆抗体
As to B1, in test [1], the Kd turned out to be 0.108 nM, the koff was 3.76e-05 s⁻¹ and the kon was 347000 M⁻¹ s⁻¹. In test [2], the 抑制干扰素诱导的Daudi细胞增殖活性的EC50 is 29.9 ng/mL, the “抑制干扰素诱导的HEK Blue IFNα/β细胞中1/2磷酸化活性的IC50” value was 5.23 ng/mL and the 抑制干扰素诱导的全血释放CXCL10/IP10活性的IC50 worked out at 698 ng/mL.

B2: Anifrolumab (antibody, V domains shown)
VH: EVQLVQSGAEVKKPGESLKISCKGSGYIFTNYWIAWVRQMPGKGLESMGIIYPGDSDIRYSPSFQGQVTISADKSITTAYLQWSSLKASDTAMYYCARHDIEGFDYWGRGTLVTVSS
VL: EIVLTQSPGTLSLSPGERATLSCRASQSVSSSFFAWYQQKPGQAPRLLIYGASSRATGIPDRLSGSGSGTDFTLTITRLEPEDFAVYYCQQYDSSAITFGQGTRLEIKR
With B2, in test [2], the 抑制干扰素诱导的Daudi细胞增殖活性的EC50 was determined as 31.7 ng/mL, the “抑制干扰素诱导的HEK Blue IFNα/β细胞中1/2磷酸化活性的IC50” value amounted to 4.43 ng/mL and the 抑制干扰素诱导的全血释放CXCL10/IP10活性的IC50 turned out to be 562 ng/mL.

As usually defined, the Kd is the concentration at which binding is half-saturated. A low value points to a tighter complex. The koff is a measure of how fast the partners let go of each other. High values mean fast dissociation, low ones slow dissociation. One may read the kon as a measure of how fast the partners come together. A lower kon goes with slower complex formation.
